Variants at the floor of the assay were thinned out.
B1: TPR 5TU (parent)
chain: GGAUCUUCUCGAUCUAACAAAAAAGACAAAUCUGCCACAAAGCUUGAGAGCAUCUUCGGAUGCAGAGGCGGCAGCCUUCGGUGGCGCGAUAGCGCCAACGUUCUCAACUAUGACACGCAAAACGCGUGCUCCGUUGAAUGGAGUUUAUCAUG

Variants of: B1
Assay: polymerase ribozyme fitness, log enrichment relative to wild type (log ratio); higher = more active; in vitro selection for triplet polymerase activity
In short: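 Mutant libraries of both subunits of a heterodimeric triplet polymerase ribozyme were PCR-built, transcribed, and selected once in triplicate, with frozen incubation at −7 °C and capture of gel-excised extended constructs on streptavidin beads before RT-PCR. Illumina sequencing of input and output libraries was filtered to genotypes with ≥10 input reads and ≥1 read per output. Fitness is the logarithm of genotype enrichment over wild-type enrichment, using inverse-variance-weighted replicate averages. The logarithm is base 2.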

Variant | polymerase ribozyme fitness (log ratio)
C38U G46U G84A U127G G143C | ≤ -4.2
A39U U53A | -2.91
A40C U56G A64U C87U G143U | ≤ -4.2
A41C C76U G81A A110C | ≤ -4.2
C38U A73G C103A | -3.99
A40U G92A A119C A120C U148G | ≤ -4.2
A41C C43A A91C C99U A113U | ≤ -4.2
A39U A60U U146A | -3.58
A40U G50U A60C A73G C85U U151G | ≤ -4.2
A40U G152U | -3.71
C38U A47G U53A G141C | -2.86
A41C A47G | -0.27
A39U U77A G81C C87U C95U A98C G126U G136C | ≤ -4.2
A40G C54U C96U G141U | -2.2
C38U G117U | 0.325
A40C G50U C85U | 0.316
A40C U61A A91G A97U G141U | ≤ -4.2
C38G U45G U56A C93G C123A U127G | ≤ -4.2
A40C C93U | 0.422
A40U G92A A98U U145G A147U | -4.09
A40C U109C | -3.47
A39U U101G | -2.05
A39G C96U | -2.18
C38U C51U C76A C79A A97U G100A C103G A106G A120G | ≤ -4.2

Variant | polymerase ribozyme fitness (log ratio)
A41C A49C C75U C85A C105A A137U A142C G143U | ≤ -4.2
A39G C87U | -2.33
A41C A47C G88U A97U | -4.03
A39U U55A G59U G117A A121U | -1.11
A40C C85G | -1.95
C38G C95A A150U | -0.802
A39U A49C U55A C87U C116G | ≤ -4.2
C38U C149U | -2.71
A41C C96U A107U C131A G133A U146C | ≤ -4.2
A40C U53A A110C | -4.04
C38U C54A C57G G143A | -4.08
A39G A49G G70A C87A G94A C99G G126A | ≤ -4.2
A39G A41G G46C C51G U56A A60C C72U A97G U111C C125A | ≤ -4.2
A40U U61A A122G | -1.1
A39C C87U G94U U101C A147U | ≤ -4.2
C38U C105U C118G U139G | -1.24
A39C A142U | -3.34
A39G C96U C116U | -1.75
C38U A73G U101A | -0.277
A40U G86U C93U C149U | -3.56
A40U G80A C87A U127G A147C | ≤ -4.2
C38U A47C C93A C125U | -3.16
A40U G88A | -3.65
A39C G80U C114U | ≤ -4.2

Variant | polymerase ribozyme fitness (log ratio)
A40U U109A | -1.86
A39C G86U | -4.18
A40U C57G A91U A138U | ≤ -4.2
A40G U56A G59U G68A C95A U135A A150U | ≤ -4.2
A39U A40C C79A U82C C96A U109G A119U G143A | ≤ -4.2
A40U C63A C72A C76A C103G | ≤ -4.2
A40U C105G | -0.905
A40C A52G G80U C114G G128U G133U | ≤ -4.2
A40U U55G G58A A97G | -0.0754
A40U G92A A120U C132A G141C | ≤ -4.2
A40G A49G | -3.58
A39G G84U U127A | ≤ -4.2
A40U G68C C79U G84A C96A A138C | ≤ -4.2
A39G U55G G83C G88C G100C G140U G141A U145G | ≤ -4.2
C38U C57G C75U G86A U148A | ≤ -4.2
A40G A97G | -1.8
C38G C85A G94U C103G | -2.31
C38U C85G | -3.44
A40U G92U A98C C103G A120C U134A | -3.87
A39U U53A G86U | -3.7
C38U G59A A60C | -1.48
A41C A73G U145C | -1.73
A40U A60C C72U G84U | -2.77
A40G G80C U90G | ≤ -4.2

Variant | polymerase ribozyme fitness (log ratio)
A40G A41U | -2.41
A39G C99G C108U | ≤ -4.2
A39C A40G A49C G80U G86U A106C A150C | ≤ -4.2
A39C A49G | -3.48
A40U G140U | -3.81
A40U A60G | 0.828
A40U A60U | -0.238
C38U G59C G81C C95G C116G | -1.71
A40U U55G C96G | -0.541
C38G G86U C118U | -2
A40C C85G C108G | ≤ -4.2
A40U U55A G58C C85G A119U | -2.59
A39U A60U G70A | ≤ -4.2
C38U A47U A121U U135A A142U | -2.42
C38G C75G G84C C103A | ≤ -4.2
A41C C76A G84A A120C | -2.53
A39C G50C G59C A97U C129A C149U | ≤ -4.2
A39U U61G C85U C93U U134A | ≤ -4.2
A40U A41U G46A C57A C87A G92U | 0.0643
A39G C96U C125A | -2.58
A40U U130A | -3.96
A41C C57A C99G U104C G126C U144G | -3.09
A39U G83C | -2.01
A40C U45A C54U | ≤ -4.2

Variant | polymerase ribozyme fitness (log ratio)
A40U G42A C63U C114U A119C G141U G143A | ≤ -4.2
A40U C57U U61A U82G A98C A106U C116U A121U C132U A138C | ≤ -4.2
A39G C54U C85U | -1.83
A39C C149U | -2.97
A39U U44G U109C | ≤ -4.2
A40C C69G C75U A98U U135G U151G | ≤ -4.2
A40U A60G A89U U134C | -0.16
A40U C95U G143U | ≤ -4.2
C38U G126U | -0.118
A40U A64G C93A A98G A107C U130G | ≤ -4.2
C38U A49C A60C U82G G83A | ≤ -4.2
A40G G92U C108U G124A G128U | ≤ -4.2
C38U U55A | -0.159
A39C A91C A137G | ≤ -4.2
A40U G92A A120C | -2.75
A40U C43U G70A U78G C87A A147G | ≤ -4.2
A40U C57A G58C C79G | -3.81
C38U C96A G141A | -0.0442
A39C C87U | -2.12
A40U G94A G126A | -0.19
A40C G128U G143U | ≤ -4.2
A40U C87U C105U G136U | -2.13
C38U | 0.0316
A39G A91G | -3.4

Variant | polymerase ribozyme fitness (log ratio)
C38U C63G A97U G143C | -3.67
A39U A52G U61A A73U A115U A150C | ≤ -4.2
A40U G141U | 0.96
A39G U55A C75G C87U A89U C99U C116U A142U | ≤ -4.2
A40U A120U G133C | -1.72
C38U U55A G59C U135C | -1.98
A41C C85U | -1.29
A39G A40G A41U G58A G59U U61A C79A U144A G152C | ≤ -4.2
C38U G83C C132A | ≤ -4.2
A40G U55G U56A G88C | ≤ -4.2
C38U U101G U135A | -0.00114
A40U C114U A121C | -2.44
A39U A52G C79G G84C C108U | ≤ -4.2
A40C U56A G59A C87A A89C G112U A119U G143A | ≤ -4.2
A40G G58C G94A G141A | -3.65
C38U G81A C87G C95U C96A A97G A138C G141U | ≤ -4.2
A40C U134G A142G U145A | -3.46
A40U C51U G83A | -0.935
A39G G48A U56A C76A C79U C105U | ≤ -4.2
A40C U45A A66U G83A G88U A97C A122U A138U | ≤ -4.2
A40U G83C C96A G152A | -3.95
A39C G84A C85G U90G A91G U111A | ≤ -4.2
A41C C57U U82C G141A | -1.09
A39G A47C C72A C103G C116U G128A | ≤ -4.2

Variant | polymerase ribozyme fitness (log ratio)
A40C G59C C63A G65U C87A C95U C125A G126U | ≤ -4.2
C38U A73U C93U A107U G117U | ≤ -4.2
A40C A52C | -1.04
A40G A64U U134G A142C | ≤ -4.2
C38G G74C C87U | ≤ -4.2
A40U G71U C85G | ≤ -4.2
A39C G58C A97U A98C C125U | -3.95
A40C U55A A107G A142G | ≤ -4.2
C38U U45G U55A A60U G71A | ≤ -4.2
A40G U56A G67A G83A | ≤ -4.2
A39G G50C G65C A110G A120G | ≤ -4.2
A41C C87G C114U | ≤ -4.2
A40C A49U A52U A60G G83U | ≤ -4.2
C38U A52G A110C | ≤ -4.2
C38U A52C A120U | -1.22
A40C A137G | -1.42
C38U C57G G58A C116A A138G | ≤ -4.2
C38U U82A U144A C149G | ≤ -4.2
A39U U53A C85A | ≤ -4.2
A40U C95U G124C G133U | ≤ -4.2
A39U G126C | -0.865
A41C A142G U144C G152A | -3.09
C38G G50C G65U G84A C96U C99U U111G G143A | ≤ -4.2
